In article PMC2756588:

B1: unnamed (peptide)
chain: GTIARPLFLVVLFFI
B2: unnamed (peptide)
chain: NAGIRPKFILALNDE
B3: unnamed (peptide)
chain: VTHRLRISIPGITGR
B4: unnamed (peptide)
chain: ILARAILTIPRVLDK

What was measured:
Test in all cases: SPOT array
[1] = target: T1, Myo5, Q04439; conditions: median of control spots 471
T1 sequence (Q04439 1072-1160, looked up): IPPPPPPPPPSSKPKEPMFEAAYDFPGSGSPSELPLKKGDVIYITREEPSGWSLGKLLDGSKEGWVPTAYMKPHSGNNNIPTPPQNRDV

[2] = target: T2, Lsb1, P53281; conditions: median of control spots 388
T2 sequence (P53281 45-122, looked up): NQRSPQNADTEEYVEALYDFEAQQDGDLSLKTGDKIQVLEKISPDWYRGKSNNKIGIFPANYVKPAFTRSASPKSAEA

[3] = target: T3, Hse1, P38753; conditions: median of control spots 1727
T3 sequence (P38753 208-285, looked up): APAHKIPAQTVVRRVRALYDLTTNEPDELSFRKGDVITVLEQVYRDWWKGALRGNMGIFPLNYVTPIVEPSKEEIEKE

[4] = target: Bem1-1, P29366; conditions: median of control spots 4282
[5] = target: T4, Sla1-3, P32790; conditions: median of control spots 5475
T4 sequence (P32790 344-424, looked up): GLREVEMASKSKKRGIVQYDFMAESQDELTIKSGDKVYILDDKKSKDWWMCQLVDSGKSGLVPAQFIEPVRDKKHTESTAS

[6] = target: T5, Boi2, P39969; conditions: median of control spots 1161
T5 sequence (P39969 32-116, looked up): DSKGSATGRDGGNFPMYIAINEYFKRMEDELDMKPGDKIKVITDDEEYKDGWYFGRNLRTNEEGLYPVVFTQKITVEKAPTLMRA

[7] = target: Rvs167, P39743; conditions: median of control spots 2707
[8] = target: T6, Bbc1, P47068; conditions: median of control spots 796
T6 sequence (P47068 1-78, looked up): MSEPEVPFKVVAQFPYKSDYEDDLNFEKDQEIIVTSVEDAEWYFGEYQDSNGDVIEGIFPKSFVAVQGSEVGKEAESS

[9] = target: Bem1-2, P29366; conditions: median of control spots 4347
[10] = target: T7, Cyk3, Q07533; conditions: median of control spots 1451
T7 sequence (Q07533 1-83, looked up): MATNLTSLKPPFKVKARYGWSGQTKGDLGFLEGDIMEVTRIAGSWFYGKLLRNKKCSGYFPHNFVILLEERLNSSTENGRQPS

[11] = target: T8, Nbp2, Q12163; conditions: median of control spots 357
T8 sequence (Q12163 103-180, looked up): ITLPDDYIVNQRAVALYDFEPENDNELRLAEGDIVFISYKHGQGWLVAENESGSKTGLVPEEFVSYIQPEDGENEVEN

[12] = target: T9, Fus1, P11710; conditions: median of control spots 1200
T9 sequence (P11710 432-512, looked up): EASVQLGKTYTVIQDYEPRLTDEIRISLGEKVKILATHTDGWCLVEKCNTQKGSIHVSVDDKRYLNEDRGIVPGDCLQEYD

[13] = target: T10, Cdc25, P04821; conditions: median of control spots 969
T10 sequence (P04821 50-136, looked up): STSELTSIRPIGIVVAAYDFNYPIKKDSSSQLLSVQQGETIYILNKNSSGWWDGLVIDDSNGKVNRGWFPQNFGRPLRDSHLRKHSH

[14] = target: Myo3, P36006; conditions: median of control spots 468
[15] = target: T11, Bud14, P27637; conditions: median of control spots 956
T11 sequence (P27637 247-328, looked up): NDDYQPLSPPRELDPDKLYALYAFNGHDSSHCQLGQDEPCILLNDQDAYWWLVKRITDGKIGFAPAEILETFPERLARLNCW

[16] = target: T12, Abp1, P15891; conditions: median of control spots 935
T12 sequence (P15891 535-592, looked up): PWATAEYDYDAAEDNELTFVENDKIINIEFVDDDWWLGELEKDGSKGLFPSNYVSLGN

[17] = target: T13, Sla1-2, P32790; conditions: median of control spots 712
T13 sequence (P32790 60-140, looked up): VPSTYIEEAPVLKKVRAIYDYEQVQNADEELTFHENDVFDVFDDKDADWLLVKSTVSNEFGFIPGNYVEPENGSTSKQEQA

[18] = target: Sho1, P40073; conditions: median of control spots 1148
[19] = target: T14, Pin3, Q06449; conditions: median of control spots 2171
T14 sequence (Q06449 53-122, looked up): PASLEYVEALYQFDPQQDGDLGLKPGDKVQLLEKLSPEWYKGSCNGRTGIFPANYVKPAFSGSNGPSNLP

[20] = target: T15, Bzz1-1, P38822; conditions: median of control spots 4446
T15 sequence (P38822 478-572, looked up): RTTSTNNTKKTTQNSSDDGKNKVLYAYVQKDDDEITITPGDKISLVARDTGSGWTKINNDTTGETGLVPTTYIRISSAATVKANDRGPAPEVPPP

[21] = target: T16, Bzz1-2, P38822; conditions: median of control spots 4538
T16 sequence (P38822 568-633, looked up): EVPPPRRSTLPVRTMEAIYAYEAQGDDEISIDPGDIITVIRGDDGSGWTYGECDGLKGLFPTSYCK

[22] = target: GST; conditions: median of control spots 978
[23] = target: T17, Pex13, P80667; conditions: median of control spots 1341
T17 sequence (P80667 295-386, looked up): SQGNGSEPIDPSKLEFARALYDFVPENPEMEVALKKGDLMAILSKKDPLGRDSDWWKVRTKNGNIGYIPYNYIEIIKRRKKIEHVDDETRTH

[24] = target: T18, Boi1, P38041; conditions: median of control spots 1162
T18 sequence (P38041 1-86, looked up): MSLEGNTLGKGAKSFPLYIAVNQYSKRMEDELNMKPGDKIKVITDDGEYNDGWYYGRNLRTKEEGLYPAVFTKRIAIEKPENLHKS

[25] = target: T19, Hof1, Q05080; conditions: median of control spots 4086
T19 sequence (Q05080 590-669, looked up): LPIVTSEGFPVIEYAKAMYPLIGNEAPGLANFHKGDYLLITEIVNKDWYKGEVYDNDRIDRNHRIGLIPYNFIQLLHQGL

[26] = target: T20, Lsb3, P43603; conditions: median of control spots 406
T20 sequence (P43603 385-451, looked up): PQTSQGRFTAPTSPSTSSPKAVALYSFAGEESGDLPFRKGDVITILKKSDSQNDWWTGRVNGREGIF

[27] = target: T21, Lsb4, P32793; conditions: median of control spots 397
T21 sequence (P32793 402-468, looked up): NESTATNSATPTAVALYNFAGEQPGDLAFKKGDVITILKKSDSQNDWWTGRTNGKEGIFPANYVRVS

Sequence of Rvs167, P39743 (P39743 419-482): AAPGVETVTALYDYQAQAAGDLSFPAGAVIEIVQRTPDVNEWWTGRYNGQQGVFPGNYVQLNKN
Sequence of Sho1, P40073 (P40073 287-367): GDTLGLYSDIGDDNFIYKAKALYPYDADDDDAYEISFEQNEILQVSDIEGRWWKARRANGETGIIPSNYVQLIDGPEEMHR
Sequence of Bem1-1, P29366 (P29366 55-141): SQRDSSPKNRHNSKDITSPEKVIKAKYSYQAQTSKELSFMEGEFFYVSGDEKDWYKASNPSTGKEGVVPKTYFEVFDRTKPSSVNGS
Sequence of Bem1-2, P29366 (P29366 139-227): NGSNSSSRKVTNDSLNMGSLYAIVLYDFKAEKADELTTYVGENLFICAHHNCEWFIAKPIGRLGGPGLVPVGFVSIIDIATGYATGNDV

Binder | SPOT intensity [1] | SPOT intensity [2] | SPOT intensity [3] | SPOT intensity [4] | SPOT intensity [5] | SPOT intensity [6] | SPOT intensity [7] | SPOT intensity [8] | SPOT intensity [9] | SPOT intensity [10] | SPOT intensity [11] | SPOT intensity [12] | SPOT intensity [13] | SPOT intensity [14] | SPOT intensity [15] | SPOT intensity [16] | SPOT intensity [17] | SPOT intensity [18] | SPOT intensity [19] | SPOT intensity [20] | further results
B1 | 0 | 0 | 0 | 0 | 0 | 1 | 0 | 0 | 1 | 1 | 0 | 9 | 18 | 1 | 8 | 0 | 0 | 0 | 3 | 0 | SPOT intensity [21]: 0; SPOT intensity [22]: 1; SPOT intensity [23]: 11; SPOT intensity [24]: 4; SPOT intensity [25]: 0; SPOT intensity [26]: 0; SPOT intensity [27]: 0
B2 | 0 | 0 | 2 | 0 | 2 | 2 | 4 | 24 | 0 | 1 | 2 | 0 | 22 | 0 | 26 | 16 | 1 | 31 | 3 | 2 | SPOT intensity [21]: 6; SPOT intensity [22]: 0; SPOT intensity [23]: 10; SPOT intensity [24]: 8; SPOT intensity [25]: 1; SPOT intensity [26]: 0; SPOT intensity [27]: 0
B3 | 11 | 382 | 5 | 2 | 0 | 0 | 0 | 30 | 4 | 0 | 72 | 14 | 19 | 13 | 12 | 225 | 4 | 180 | 46 | 0 | SPOT intensity [21]: 0; SPOT intensity [22]: 1; SPOT intensity [23]: 20; SPOT intensity [24]: 0; SPOT intensity [25]: 0; SPOT intensity [26]: 8; SPOT intensity [27]: 22
B4 | 3 | 23 | 5 | 1 | 4 | 0 | 0 | 35 | 0 | 0 | 17 | 9 | 36 | 17 | 10 | 189 | 6 | 137 | 107 | 0 | SPOT intensity [21]: 2; SPOT intensity [22]: 0; SPOT intensity [23]: 56; SPOT intensity [24]: 0; SPOT intensity [25]: 0; SPOT intensity [26]: 8; SPOT intensity [27]: 38
